Test results taken from WO1999010379A1 (dated 1999).

Assays:
[1] = molecular target: T1, monoclonal antibody SM3 (secreted by the hybridoma HSM3, ECACC accession no. 87010701); test: inhibition ELISA of SM3 (1 ug/ml) binding to the fusion protein with seven MUC1 tandem repeats
T1 construct: The general ELISA method detects it with goat anti-mouse (Fc specific) conjugate; also called SM3 antibody

[2] = molecular target: T1, monoclonal antibody SM3 (secreted by …); test: inhibition ELISA: SM3 at 1 ug/ml incubated with increasing peptide, binding to the fusion protein with seven MUC1 tandem repeats

T1 sequence (VH, as listed by the source limits assumed, chain 1 of 2): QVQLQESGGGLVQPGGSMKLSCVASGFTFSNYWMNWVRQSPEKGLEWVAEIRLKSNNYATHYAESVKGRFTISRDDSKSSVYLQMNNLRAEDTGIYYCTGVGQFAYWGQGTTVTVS
T1 sequence (VL, as listed by the source limits assumed, chain 2 of 2): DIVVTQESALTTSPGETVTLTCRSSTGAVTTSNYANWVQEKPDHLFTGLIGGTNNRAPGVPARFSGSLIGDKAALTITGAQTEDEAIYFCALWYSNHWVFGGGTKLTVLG

B1: control peptide of the same composition but different sequence (Ala-Arg-Pro-Thr-Gly-Thr-Ser-Asp-Pro-Thr-Pro-Ala-Ser) (peptide)
peptide: ARPTGTSDPTPAS
[1]
  binding result: no binding (tested: approximately 30μg/ml)

B2: MUC1 peptide Thr-Ser-Ala-Pro-Asp-Thr-Arg-Pro-Ala-Pro-Gly-Ser-Thr ("the crystal peptide") (peptide)
peptide: TSAPDTRPAPGST
notes: Non-glycosylated peptide; also called MUCl peptide; MUCl peptide antigen
[2]
  Apparent Ka: ~24 µM
  IC50: ~30 µg/mL
